Test: soluble on expression in E. coli; label from the status in PepcDB or PDB records

Sequence | soluble on expression in E. coli
MSLKHQETTSQQYNFSIIKHGDISTPQGFTAGGMHIGLRANKKDFGWIYSSSLASSAAVYTLNQFKAAPLIVTEDTLQKSKGKLQALVVNSANANSCTGQQGIDDARQTQTWVAQQLQIPSEHVAVASTGVIGEYLPMDKIKTGTEHIKDTNFATPGAFNEAILTTDTCTKHIAVSLKIDGKTVTIGGSAKGSGMIHPNMATMLAFITTDASIESNTLHQLLKSSTDHTFNMITVDGDTSTNDMVLVMANHQVEHQILSQDHPQWETFVDAFNFVCTFLAKAIARDGEGATKLISVNVSGAKSISDARKIGKTIVSSNLVKSAIFGEDANFGRIITAIGYSGCEIDPKCTYVQLNQIPVVDKGMAVLFDEQAMSNTLTHEHVTIDVQLGLGNAAATAYGCDLSYDYVRINASYRTEGHHHHHH | soluble
MSLKIIVVGCGKIGYTIAKVLSEKKDIDVTVVDNNPNIFDKMVEPIDVIFISGNGANEKTLIEAGAKDADLIVSTTNADELNVLCCIMAERLGTKHSIARVRNPEYMLEFNKLWKDLGIDMVINPERQTAREISRILRYHAADDIVTFIGDRVELVSFKVSETPEYFVGKSVSQIFDNNMGILLAIVERENQALIPNGDLIFKESDIIWIMGRPSQIMKFFTLIKKGPKKGQEIMVIGGGKITHYLVELLNRHTTKANIKIIKKDRSKCESLYEALSSASLERRCLFIHGDGTNEELLIDEGIDTMDACVCLTDRDEENVFISLYAMRRGVKKVITKINYIHQNMAKSLGLWLGNIITPQYITAKTVIRYVDGLSGAVGRNIMTIHQIYSGDDGNVDAIEFQVNKKAKCIDTPIKKLKLKKGILIGCISRDFDIIIPSGETEIHIGDRVIIFSKNNDIRDLDDILENEGHHHHHH | soluble
MSLKINIKDDAQAYLADKIPAGSQVILTTDDGSNKYSSLGGSCAIGNKFQLVILKAADPDYTTPLENNAGYVMHVAPADEAYLGNGLNISRWHNALALKDDSGMLDGALAVVDWRDVSPETEAERREKMQTIGTKICEGHHHHHH | soluble
MSLKITDLRVAVVSRAPMTCPIIRIDTNQGIYGLGEVRDGASKNYALMLKSRLLNENPCNVDKLFRKIKQFGGHARQGGGVCGVEMALWDLAGKAYNVPVHQMLGGKFRDRIRCYADTTESHDPKVYGQRLKARRDEGFTWLKMDLGVDLVADVPGALTMPVGERINGNPMVAHMFTGNEITEKGIQLMCDYVAQIREIVGMDIPLSADHFGHIGVNSCIRLGKALTKYNMAWLEDMIPWQQTALLKQIADAVDIPILTGEDIYLKEPFIELCKAHAVDIIHPDLATSGGILETKKIGDAAQELGVAMAMHFAGSPVSCMANVHCAAATENFLVLENHSVDVPWWGDLVEGVSKPIVSKGFITVPNGPGLGVTLNDEVVKQHLGEPGYFEATPYWNVDRSNDRQWSEGHHHHHH | not soluble
MSLKITDVKVWLVQGIKYNWTLLKIYTDEGYTGVGEATNWPGSPIVFEAAKHVGQRIIGLDPMKTDFIWTKLYRDLNWIGPYGASLCAISGIDMALLDLKAKVLGVPCYELLGGAYRKDIQLYANYWFTGGGHNEADYAAQARRVMDAGFTGLKFDPFAHTNYFYGEDLASNLTLTAEQQDLAFNVSKAVREAVGSECDIMIETHAMLNYRVAVKMAERLAKLDITWYEEPAGPESSQTLRAMRERIPSDVAICVGERHYTRFGIRSLLEKHVCDVIMPDITRCGGPSEMKRMATMAEAYNVLIAPHNPNGPLSTLASSHVCAAIPNFFRQEFMFNDVPWRDTVIDHPIAEMVYDGHLHLSDRPGLGVDLVEEEMEKHPGITTDAPDNFYIEGHHHHHH | soluble
MSLKITDVRVIRFRTHADRWDIGHARLRPAAEVSQTVTCIDTDAGLTGWFFGGGKHGDQDGMSPDEQRLIEGRVRDLLLGVDPFDREAVWKWMWVANLPEVAQSVIDCALWDLAGRAAGQPVYKLMGAARDKVPAYASTYPNIGPPQVYAEHALACRAEGYKAYKIHPHYFWNPDTGLPTKGRPSNIRADIETINLVREAVGPDMVLMYDVWGTYHTIEETIKVGRELERNDFYWFEHPMPEYRVESYRRLCRELSIPILAPEIAAGGVFTRAEWILQGASDMSRMDIRRGGVTGCRKTAVVCEAFGQRCEIHMAGWGNLQVMGATSQDTSEWYEKGLLAPGVDYDAPHPYLERNCDPMDAEGHVALPTAPGLGYEPIWDYIDDNRVPSEGHHHHHH | soluble
MSLKITHTEIYRFSIPMEPFVIATGTMHFAQNVLIRIHTDNGLYGLGECSAFPMIVGENQDTCLVMAREFAKLLPGKDPLDIPGRMNDLLGYADRNTTIKSAFDMALFDLAAKHAGQPLYQFLGGNRKKVETDMTIGISSPEKMAQLAQHYQAQGCSILKVKLGKDIHEDIERVAQIRAAVGGMMTIRLDANQGWSFDDALYGLGALAKYDIEFCEQPMRSWYDDRLPELQLNSPIAIMADESCYNHHDARRLINSRSCEYLNIKFSKSGGILEAQKIHEVALQHGMKCMMGGMLESRLAATAKLHFALSAPNIVFFDLDTCMLGHLIDPVVGGMSYEGFILDVPEAPGIGADADPAFLDECESWRIEGHHHHHH | soluble
MSLKKILVIGSKGFIGSNLVAYYEKINTIDVWGCDVISDYSSRNYFLIDASNSDFNEVFQQVAFDVCINCSGSASVPLSMINPGRDFHLNVLNVFNMLDSIRKNIPSCKFVNLSSAAVYGNPESLPIKEDTPINPLSPYGWHKLQSEILCKQFNQNFALHTCSLRIFSAYGIGLRKQLFWDWFQKINDAASMSIYGTGKESRDFIYIDDLIQCIECVVARGDFNAGIYNIANGQEIYIADAIKEFKKASGKSFEYTFTQETRPGDPINWVADISKLKTLGYQQQVTFEKGVEILMKWLQQEKEGHHHHHH | soluble
MSLKKYIITLLFCTLFCHLGIAQGLKSVSILGDSYSTFEGYVQPDTNFVWYLKTPPKGRKTDMVSVRNTWWHQFIKENNYRLCVNNSFSGATICHTGYRSEDYSDRSFITRMKALGCPDIIFIFGATNDYWAKSPLGEYKYADWSKKDLYSFRPAMAYMLDTMIDYYPNVEIYFLLNDGLGNEITESVRTICKHYQIDCIELKELDKMSGHPSVKGMKQISEQVKAYMNSRQNEGHHHHHH | not soluble
MSLKLLVLIDGSKWSQKAALHAFSIAKRKNAKVILFSVLDRREAKALAFHLSMRSDSLGKIKEFEETIWRETKKSVKEVITTLLELGRREGINCSFKIVEGSAKEEIIKEANSGKYSMVIMGAYGRSGKTRIGSLLEEVVGQIRIPVMIVREGHHHHHH | soluble
MSLKLVENLALKYYDKVVDLRHQIHMHPELEFEEENTAHLVCKILDEFGIKYQKNIAKTGILAIIEGKKKSQKKPKCVLLRADMDALPVQEKTNLSYASKIDGKMHACGHDGHTAGLLGAALILNELKDEFCGTIKFMFQPAEEGSGGAKPMIESGVLENPYVDAVFGCHLWGPLLENTAQIVSGEMMAGTDIFDLEFIGRGGHGAHPHTCIDPIIMTTQFVNNIQSVISRRLAPYEAGVITVGQICAGTTYNVIPTNAYLKGTVRFLNDKTQDILKSSLEEVAAATAKSNGGDYKLKYTKEFPPLINDEKAVLIARKAFAKVLGEENIIVSSKPDMGAEDFAFLTRERMGAYVFVGISKDLNHPALHHSSTFCWDDENLKVLMQGDVMMALEFLNEGGSHHHHHH | soluble
MSLKLVRKFARDIEVDELAICIPLEYKSACLIYELSRYTNVYAAKLDDFSTKPEVVSWLKEKGVEVKMKRDVVNAEYFLDCAAVLSRVAVKSGKERLKVVELTKTGEEYLRKMDVRMKAISLDSSTLKGTGENTHGTAFGLLDALLRLNVFLPGKKALILGFGRVGRGCARLLKSVGCDVAVWDNDETRQIEALYEGFRVEKDFTAEVVVTCTGVKGVLGKEELEEISDGSIILNMGAEMEIEPAGELIKDYGLVKEYEIAGKRYFLVADGYAANLALGSGTPIEVMDRTFSAAILALNHLSRSDFDGIIPLPHHIESTILEAIMMYEGHHHHHH | not soluble
MSLKNNVYILADSVVTPLGQSTEENMEKLYSLQSAIRTYTHPQIGTFYASKFEDGKSFQIKKDAAGKTKIERLFISCIEKALERTEIDVENANVLFVFASTKGNVEYLTDETFDKNRLRIGITAQDVTAYFNNPNTPIVVSNACISGLQAIQYGYEVLQDNRYTHVVVTGADCFSEFILSGFHSFQALSPFPCKPFDKARAGLSLGEGCGTLILSNKKTDAAAIEILSVVSSNDANHLSGPSRTGEGLSSAILGAINEAGITAEQIDVISAHGTATLYNDEMESMAFKTANLEAKAVYSVKGNIGHTLGAAGIIETIYLAQSLQNNMLVPSIGFTETGTSVELNVTRQSTLKTMQIGLKTASGFGGGNTALLLKKEGHHHHHH | not soluble
MSLKNTFVYQAEKPVIKLLQITDPHLFKDESAELLGVNTQASFAQVLKEIQQENNEFDVILATGDLVQDSSDEGYIRFVEMMKPFNKPVFWIPGNHDFQPKMAEFLNQPPMNAAKHLLLGEHWQALLLDSQVYGVPHGQLSQHQLDLLKETLGKNPERYTLVVLHHHLLPTNSAWLDQHNLRNSHELAEVLAPFTNVKAILYGHIHQEVNSEWNGYQVMATPATCIQFKPDCQYFSLDTLQPGWREIELHSDGSIRTEVKRIQQAEFFPNMQEEGYEGGSHHHHHH | soluble
MSLKPAPRWPLHPAPREGEALSSWLNRVALCYHMEVSELLEHDLGHAQVDDLDTAPPLALLAMLSQRSGIEPDRLRCMSFAGWVPWLLDSLDDQIPDALETYAFQLSVLLPKLRRRTRSITSWRAWLPSQPIHRACPLCLNDPANQAVLLAWKLPLMLSCPLHGCWLESYWGVPGCQRRSNTDPWRRGEGHHHHHH | not soluble
MSLKPSLDELESLLIARHTPNIHNKLKKGKVAILGLGGLGSNIAISLARIGVGELLLIDYDVVEPSNLNRQQYFIDDIGKLKTDAMIENIKKINPFIKLNKRDIFLNKNNMDTIKDSDLIIEAFDDASCKAQVCNYVLINLKDKYLIASSGMAGYYDSNIITTKKIKDRFYICGDFVNEAKFGEEGHHHHHH | not soluble
MSLKPVGLNYFSEKKGLLTDEDLMEDEHYCGMSFRGDEKKSIFGIFDGYGGIGAARETRRTLPNIIQKLIEQGLDSKEILEKGFSEVDEGMNKEEFMDIGCTCTLIYIWEEDNKVYIRSGNVGDSTCFVKKMNKGKPEIITLSQDHKVTSACEQKRMKEAGITLVEGQKRINGVGVARTLANHFVKNLNIGMIGTPYISPAIVLESGDEIILCSDGIWDVITPEKAFEMMENTQVSEAPKVIMEESMKITECRDNVTVIVVKILEGHHHHHH | not soluble
MSLKQNGGLTDLTGSVAFGTTPLSPGVTDRLYYPSRRNKGAALSDDKACFLSVPRSGGKGPPPEYDGAGRVTLFSGYLFDRERLARKLGGDHSWPDVRLAAAWIAHHGLDRLADLAGDYALSHWDPGARRLFLAVAPMGSRLLYWHRVGTICHFATTVAGLHRIPDIPRVVDPLHLTARFSAMVGDPTRTVYKDIHQIVPGDMLVADVNANRYVPLWRPDAERRLRLANEREYLEAADELLERAVARRLQAAHAPAFLSSGGLDSAAMLTTASRLAGDRKVRSYTIVPSPGLCVTADRGWYGDERAKVADLAASHTNLDIRLCHSLVPSPLETNPAHLFMATGLPCMIANQIGWLDIAFQQMQQAGHDAVLSGQSGNFTFSYDGNLCFADLIREGRPLTALRLLAQVARYKQQGFAPMVRHRVVVPLLPDAFYYGQRRWRGRPHPLADRTLTRPGWREKVGLDDYLADHGEQPFQERDSRSRQQIIHFMLKRRAMTLPNAHALETVRGTHYRDVYADRDLLEFILAIPRDQFILDGRNRSLARRLLAMRGVPDSIVNERAIGQEGHHHHHH | not soluble

From the DeepSol protein solubility set
